The results in this text go back to the DeepSol protein solubility set.

This series is described as follows: soluble on expression in E. coli; label from the status in PepcDB or PDB records.
As for “MLKRRQPKYCSFMDSIDNSTTIIRKNLNRFIRELTDDGKLDFESIPYQNLQKEVANQDEEGCENVIEVLLDTTSRSGCPDRKLILQLFNSFFLQFPIFRENLLNDPSEFLELMFETNPIRNPLPGSKKHGNELKVEAITVIKSWEKEKCVKNDARMKCLVVTLKKTKFVDYENGAKKIEAERKRKKILEERKMKMIENSVNVYSSKYHEIKNDAETLSMELTTTMQMLVPSFTTADPEVPSTSTSTPSAISDSKSFEIFIPDLTPEISVSSENDAIVEAFLGAKLSLIHRVQTLRKLVKRLQLLKQPGEKLAQEIIDYRDGIKNLVLKADELRIINPRPPKNKRKKSDDDFIDVDISIDDILMVQYAEKLEVDVKSKDESEKITESPEKHKIEMKNEKPVKIKTVPFGLDLKYWGEERKDVEVPKNNADCHRFWRSADEGTVAGKAQQSIYTQRQYTFIGKAPDNRKVCLAKMKSGKLCPRKDYYTCPLHGKIVDRDDEGRPINEEDRLEENYRKEQNHLKEADKIRQMIEKEYESKTKRRKKHDVDTTASEDVRNRLQKKLLDPKTIQRVSADLDASRKNRLEKNFGQQFSHF”, the “soluble on expression in E. coli” value was “not soluble”.

In the case of “STRPVGGTEYSWCRAIDGGTGIAVIALLLSRTPKLQNLQNTLDKLQIYHPTLRSNIRFDASANSFSFVVTSAADSHVEIHPFDSVSTAQIIRDSDDPCADPHRIILEHEMNKNTWINPHRWIKSESRVFIVSLYDLTDDGEQRILTFRLNTAAVDRTAAVTLLREFMKETAADGFGNGPVVAATETAVGLGKAIEELIPSGKGDKPFWARGIDVLGYSLNAFRFSNLNFVDAENSNRRSQLVRLKLDRDQTLKLVAGCKARGLKLWAALASSALIAAYSSKNLPPYQGEKYAVVTLSDCRSILEPPLTSNDFGFYHAGILHTHDLTGEEKLWDLAKRCYDSFTSSKNSNKQFTDMSDLNFLMCKAIENPNLTPSSSLRTAFISIFEDPVIDESPEPELASLGVQDYIGCASIHGVGPSVAVFDALRDGKLDCAFVYPSPLHSREQMDGLIQHMKTILLEGSASSF”, the “soluble on expression in E. coli” value is reported as “soluble”.

Regarding “MARLTVHTLETAPEAAKARVEAVLQNNGFIPNLIGVLSNAPEALAFYQEVGKLNAANSLTAGEVEVIQIIAARTNQCGFCVAGHTKLATLKKLLSEQSVKAARALAAGEFDDAKLGALAAFTQAVMAKKGAVSDEELKAFFDAGYNQQQAVEVVMGVALATLCNYVNNLGQTEINP”, the “soluble on expression in E. coli” value is recorded as “not soluble”. On to “MRAIIIGIGQCGTKIADIFSLVDFEALAINTSKSDLEYLKHIPPERRILVGESIVGGKGVNANPLLGREAMKRDLPMVMKKISSLVGYEDVDIFFLTFGFGGGTGAGGTPVLAEALKEEYPDSLVVAIGALPLKEEGIRPTINAAITIDKLSRIVDSIIAIDNNKLKESDEDISQAYEKINYAIVERIASLLALIDVPGEQTLDASDLKFVLRAMGSFATVGYAKADATKIKSLSRLIIRSFENEGLYLDVNLESALYGLVAIHGPPEVLKAKEIFDALSELSQRIRGKQIFRGFYPDPREREVEVVTLLSGIYESKSIENIVITAKRYAREFMKAKEEGEMKKRELLKGLPDFEDIYPGEVDEG”, for which the “soluble on expression in E. coli” value is “soluble”. The same measure for “MNEIKNLKQYSKAAERFEGAHLLCPGCAHGMIVREVLNATDDPLILSSATGCLEVSTAVYPYTSWDVPWIHIGFENSSTAVAGAEAMYKALERKGKLYSEKKPKFVAFGGDGSTYDIGFQYISGCFERGHNMTYICLDNEVYANTGGQRSGSTPIGASTTTTPAGRVSYGKKDKKKDILQIMAAHGAPYVAQVAPNKWKDMAKKLKMALETEGPTFINAMSACTTEWKFESNLTVEVSDLAVDSLVFPLYEIINGTELNITYRPKNIVPVRDYLAAQGRFKHLFKKENEHIIEQWQKEVDARWVYLQKREEARV”: “not soluble”; for “SAAAADERSPEDGEDEEEEEQLVLVELSGIIDSDFLSKCENKCKVLGIDTERPILQVDSCVFAGEYEDTLGTCVIFEENVEHADTEGNNKTVLKYKCHTMKKLSMTRTLLTEKKEGEENIGGVEWLQIKDNDFSYRPNMICNFLHENEDEEVVASAPDKSLELEEEEIQMNDSSNLSCEQEKPMHLEIEDSGPLIDIPSETEGSVFMETQMLP”: “not soluble”.

As for “MNIMSESIPQFYKRIQRCDPQLGTTYSKENPYFNVLSRQCNFGTVQFSYRDFYKVTLIIGVGKLYYADKWILVNRPAMLFSNPLVPYAWESISEEQKGMFCIFNEQFVQSEEKNGSLANTPLFKVTGDKVFFLNDAQVAKVMDIYTQMQEENQSDYANKHDVLRCYLHLLIHTALKMQESNKYESHPNASQRITELFIELLDRQFPVDYPHSVLSLRTPADYANRLSIHVNHLNKVVKDTTGKTTSTMIAERIIKECTQYLLHSNFSISEIAYSLGFENMAYFSKFYRKHTGKSPSEIREQQLFDLCK”, the “soluble on expression in E. coli” value is “not soluble”. The same measure for “MAHHHHHHMLYLKEIELGNYYICNLDDYPREYCVVDYDPNKVIKFLCPIVHNEGEEMKTYDSSYCFRYKGIKDRLIISNNEEQIYTTLPGIILENQILYDRYNLGIYLMPLKLEEDMSIVCVCDTKKEYKGITPYIKINIKKSNNLLGADSADQHIKGCDFGNNQGEHQFLTNSQSYEENLVCEIHANPGDIVGINCINYNEGDLQNYEVKLEPSNCFSTVSFSLYTLSFVKMNINNIFPDARYYPESSAFPKDPNFKKFSTTSYLWIPAHVPEDFLFFCSCRYAQGEGVAIYHVGSSAAAVEAV”: “not soluble”; for “MGSDKIHHHHHHMNKNNQYVLSLACQDAPGIVSEVSTFLFNNGANIVEAEQFNDEDSSKFFMRVSVEIPVAGVNDFNSAFGKVVEKYNAEWWFRPRTDRKKVVIMVSKFDHCLGDLLYRHRLGELDMEVVGIISNHPREALSVSLVGDIPFHYLPVTPATKAAQESQIKNIVTQSQADLIVLARYMQILSDDLSAFLSGRCINIHHSFLPGFKGAKPYHQAHTRGVKLIGATAHFVTADLDEGPIIAQDVEHVSHRDSAEDLVRKGRDIERRVLSRAVLLFLEDRLIVNGERTVVFAD”: “not soluble”. The same measure for “MKKLFFIMAMSVCAFTAQAQTTSGIRVGLNMTSATGKYNDLMADQDYNNKSYMGYSIHYFIDVPVIGNFSIQPAVGLSMKGITYEYDKFTTKKSHRLDLDSYKKYDVTESRGTSVTQKHNLGYLDVPILFAYALPLSESFRVQLGVGPYFSYGLFGKFKYESDKYLTVSPDKYGENKHTITKDDYPSFGKNDDADDPKGNINRFDWGIAVQGSIYWKRLFLNVAYQKGLKSANITDEKNEGKDKLALSNLSLGLGFIF”: “not soluble”. The same measure for “MGSDKIHHHHHHMKTTLAERLKTARTAQGLSQKALGDMIGVSQAAIQKIEVGKASQTTKIVELSNALHIRPEWLANGGGPMHSDRVVRSLQESSIPPTSKWGTVSAWDNTTKLSEDEVEVPFLKDIEFACGDGRIQSEDYNGFKLRFSKATLRKVGANTDGSGVLCFPAAGDSMEPIIPDGTTVAVDTNNKRIIDGKLYAIAQEGSGNDKLKRIKQLYRKPGGLLVIHSFNRDADEEAYESEVEIIGRVFWYSVLL”: “not soluble”; for “MAHHHHHHMSVATEMKVEEGIHLCGDQEFKLEDISSCVSEIFEKKKKYENIPFIQVAPMINVTNRHFRALVRTITRRAQVWTEMIVDNTLLYNLNNLEEHLGFNSNEHPIVCQLGGSDATSLAEAAVLVEQAGYDEINLNVGCPSTKVANKGAFGAYLMKKPEHVRNIVYEIKRKVHIPVSVKIRTGVDDCDSFPFLRSFVECISSVGCSHFIVHARKAWLKGLDPKQNRSVPPLEYPKVYSLCQLYPHLKFTLNGGVKTVEEAVALLNGYLPKKGNVDSEKTYVQVKNYQVNPLHGVMLGRACMENTTVLSQTDQLVYNEKPPHTAFSRRTVLDAYKSYLEENSSLCSLSSAFELLKPVLGILKGMPGHRIFRNKLDMYIRNYASTLPCSGILEKAMVDVDAVAPGCLDLPLADYKLQQEYIKNY”: “not soluble”; for “MITFTANIDGSQANAGTGTGSLGMGVANILFDDLSNEFSWDISWSGLTGNVTAAHFHGPALLNQNAGVQVAISTLSNPTSGSDTINTAQAADLLAGLWYINIHTDTSPSGEIRGQVQVASVPEPGTLSLLLLSMIGVFYSRSKILLEHHHHHH”: “not soluble”. Consider “MKIRVADEKELPMILQFLTEVKAYMDVVGITQWTKDYPSQGDIQEDITKKRLYLLVHEEMIFSMATFCMEQEQDFVWLKRFATSPNYIAKGYGSLLFHELEKRAVWEGRRKMYAQTNHTNHRMIRFFESKGFTKIHESLQMNRLDFGSFYLYVKELENQSIV”, for which the “soluble on expression in E. coli” value is on record as “soluble”. As for “MAHHHHHHMLFVDLLNGVNVNYKRKVPICKRPTRSAEYLSNQPLHANRNVEQTSSKNGEASITNHEDEKDENILQQYIYTLSHLTIFDVDRDKSTPLNIALLLKACLASHNYIKNVEIFTSNVKNKEICSFIYERRNDFDAFFKLHVMKYIDFFGNPQIVETLKSSVDNKEMYQRELEIFNQIDGETKLRKDLLEDILFECTRLNKIIQYSLAVNNFNLFSPTVLLKLFTYFKHYGVYYSIFLNNIKKVKYYYQTKDIREEDKRKIEKIVDHYLLTLDRFNHMYEAGHVTL”, the entry is “not soluble”. The same measure for “NRANPDPNCCLGVFGLSLYTTERDLREVFSKYGPIADVSIVYDQQSRRSRGFAFVYFENVDDAKEAKERANGMELDGRRIRV”: “soluble”; for “GPGSMYARYRTRSRFYKRPEKMLKAYNVSPNLLRLPKVKPGLLKGIYTDEKIDLRDRERLELVESIRHPKERDFYQDHTYHNQWIARDLESHQKIQIAGRYPYFSPDYEIKPWIWYPGDTVEVVSGEGAGQRGAIIAVVKYKNEILVQNVNVQDVVIPASETRPEQVVQREHPISVLRVRHVDPSTNQLCHLEIVKVRNKETGELEERRISLESGALLPIPAPEETVEAGDPLKDTAIQDADEETYDREKEMPLLVVRRLQAMENYFVDSLQKSHEYHKALQMRNAQDMQTFQKDVLVRATEKLAAAAAVFGHGAMAEAGSQAASVASESSQAGDAEEDAVKGTITVETVVAEVLKSEQRFRSDAAAPGVPGWWQNMIDAYVSVLEEEEATIEAEAAAQAQAAEADRRAEQLMADATAEVGQSMEEDGTMEGGDEDLDEQDGDLDEDSSRSDRSK”: “not soluble”. Regarding “MVEIFNEIMQRVKEAETIIIHRHVRPDPDAYGSQLGLKLYLERKFPEKNIYATGEAEPSLSFIGDLDEIDDSVYSDALVIVCDTANAPRIDDQRYLNGQSLIKIDHHPATDQYGDVNFVNTEASSTSEIIFDFISHFNDLSIIDEHVARVLYLGIVGDTGRFLFSNTSPHTMEVASQLLAYPFNHNAELNKMSEKDPKLMPFQGYVLQNFELSDSHEYCQIKITNDVLKQFDIQPNEASQFVNTVADISGLKIWMFGVDEGDQIRCRIRSKGITINDVANQFGGGGHPNASGVSVYSWDEFEELAQALRQKLLEHHHHHH”, the “soluble on expression in E. coli” value is reported as “soluble”. On to “SRLFDEVVKKELDEAALKGVILTDGELKPEEFSMHIAEQLRAGGPFGQAFPEPIFDGEFKVLHQKLVGEKHLKLMLEPLYKGHPTNVMIDGIAFNVDLRRWPDASVKTVRLAYKLDVNEFRGNQSLQLMIDHIEAK”, for which the “soluble on expression in E. coli” value is reported as “not soluble”. As for “MGSSHHHHHHSSGLVPRGSHMFTTKLAEKVVSAWKAKISQPALKAAQDGVIDTVAAALGGVTEHSVQVALKYVAATGGSGDSKLWGVNQRSNMFDAAFVNGMAAHAIDFDDSFPVMRGHPSSSLVPAIFAVGEHVGANGHNCLKSYVLGIEVVATLGRAVGKGHYLAGWHPTSTLGVFGATTAAALLLGADEEQLRNAWGIAASNSCGIIKNFGTMTKPMHTGSAARNGVLSAWLSMQSFTGCQTVFDDAEGILAMYGAQPGPELFNAMQKFGTPWAIIAPGLYKKSWPSCYANHKPLAGLFAIMKEHGLTGQDISHVDVGFLPGVEKPLLYMDPRTTEEAKFSIEANIGAALLDGEVSLASFEIEHLDRPAMRAAMKKVTRFDMPSETTFSGTTGYTDIVVHTADGKIERRIEATPGSLEDPMDDAHLERKFKDCTAWMPFGESGLLFDRLRSLTADQGIKTVQP”, the “soluble on expression in E. coli” value is “soluble”.
